Measurements as given in US20230060409.

Test system: Ras

Substance: mouse neurofibromin expressed from full-length mNf1 cDNA with exon 28 deleted
- Ras assays (GTP-Ras levels, p-ERK/ERK ratio, ELK1 transcriptional activity): exon 28 deletion performed the worst in Ras assays as it retained the least function
